The values below come from publication PMC10159178 (PLOS ONE, 2023).

The assay deals with wild-type SARS-CoV-2 RBD-His protein (SARS-CoV-2, wild-type, UniProt P0DTC2). Kind of assay: SPR. The settings on record: both partners purified.

The term Kd denotes the equilibrium constant for the complex coming apart. Lower therefore signals tighter binding. Usually koff stands for the rate constant with which the complex falls apart. Low values mean a long-lived complex, high ones a short-lived complex. What is called kon is the rate constant with which the complex forms. Low readings indicate slow association, high ones fast association.

B1: 3D2 human monoclonal antibody against the RBD of SARS-CoV-2 (antibody, V domains shown)
VH: EVQLVQSGAEVKKPGDSLKISCKGSGYSFANYWIGWVRQKPGKGLEWMGIIYPGDSDTRYSPSSLGQVSISVDKSISTAYLQWSSLKASDTAMYYCARHPIHGYGSGSLYNPDYWGQGTLVTVSS
VL: QSVLTQPPSVSAAPGQKVTISCSGSNSNIGINYVSWYQQLPETAPKLLIYENNQRPSGIPDRFSGSKSGTSATLGITGLQTGDEADYYCGTWDTSLGAYVFGTGTKVTVL
notes: also called 3D2 mAb
In the case of B1, the Kd was found to be 0.789 nM, the koff turned out to be 0.000268 s⁻¹, the association rate constant (kon) worked out at 339000 M⁻¹ s⁻¹ and the t1/2 stood at 43.1 min.

B2: 1D1 human monoclonal antibody against the RBD of SARS-CoV-2 (antibody, V domains shown)
VH: EVLLVESGGGLIQPGGSLRLSCAASGFTVSSNYMIWVRQAPGKGLEWVSLIYSGGSTFYADSVKGRFIISRDSSKNTLYLQMNSLRAEDTAVYYCAREPYGDKAWGQGTLVTVSS
VL: DIQMTQSPSSLSASVGDRVTITCQASQDINKYLNWYQQKPGKAPKPLISDTSNLQPGVPSRFSGSGAGTDFTLTISSLQPEDIATYYCQQYDNLPITFGQGTRLEIK
B2 registered a Kd of 0.242 nM, a koff of 0.00015 s⁻¹ and a kon of 620000 M⁻¹ s⁻¹.
